How the values were obtained:
[1] = In vitro kinetic assay of purified HACS variants; substrate acetaldehyde; format: biochemical; conditions: for Km: read-out: Km, app
Experimental: The kinetic assay was performed with a coupled reaction providing formyl-CoA from formate catalyzed by CoA transferase CaAbfT using acetyl-CoA as a CoA donor.
In vitro kinetic assay was comprised of 100 mM KPi pH 6.9, 10 mM MgCl2, 0.15 mM TPP, 2 mM acetyl-CoA, 1 μM CaAbfT, 0.25 μM HACS variants, and 20 mM sodium formate. Reactions were incubated at room temperature for 3 min to convert formate to formyl-CoA, and then specific concentration of aldehyde (specifically acetaldehyde or propionaldehyde here) was added to the reaction. After incubating another 3 min, 1/20 of the reaction volume of 10 M NaOH solution was added to terminate the reactions. After 30 min hydrolysis, 1/20 of the reaction volume of 10 N H2SO4 was added to neutralize the pH. Samples were centrifuged at 20817×g for 15 minutes and the supernatant analyzed by GC-MS as described below.
For this analysis, 0.15 of the reaction volume of internal standard methyl succinate was added to the samples. The resulting sample was extracted into 4 mL ethyl acetate by vigorous vortexing for 20 min. The organic phase was separated and evaporated to dryness under a stream of nitrogen. The residue was dissolved in 30 μL pyridine and 30 μL N,O-Bis(trimethylsilyl)trifluoroacetamide (BSTFA) and incubated at 60° C. for 15 minutes. Compound identification and analysis was performed by GC-MS using an Agilent 7890B Series Custom Gas Chromatography system equipped with a 5977B Inert Plus Mass Selective Detector Turbo EI Bundle (for identification) and an Agilent HP-5-ms capillary column (0.25 mm internal diameter, 0.25 μm film thickness, 30 m length). Samples were analyzed by GC (1 μL injection with a 20:1 split ratio) using helium as the carrier gas at a flowrate of 1.5 mL/min and the following temperature profile: initial 90° C. for 3 min; ramp at 15° C./min to 170° C.; ramp at 20° C./min to 300° C. and hold for 8 min. The injector and detector temperature were 250° C. and 350° C., respectively.
As hypothesized from Example 3 (FIG. 22B), JGI15 had lower Km with lower kcat with respect to formaldehyde in comparison with JGI20 (Table 8). With longer chain aldehydes JGI15 and JGI20 has lower Km (sub millimolar) to acetaldehyde and propionaldehyde compared to JGI23 and JGI24, while also lower Kcat as well. Which indicates they have stronger affinity to the aldehyde and lower enzymatic activity. JGI23 and JGI24 are promising as they have better activity (higher Kcat) which have a good potential to work better in vivo by improve their affinity to substrates (lower Km). Similarly, AcHACL as lower Km with acetone while JGI15 as better Kcat (Table 8).

[2] = system: glycolate production from formaldehyde; test: Resting-cell bioconversion pathway 1 (HACS with LmACR-EcAldA), formaldehyde as sole carbon source; format: cell-based, E. coli; conditions: for glycolate productivity (glycolyl-CoA synthase activity) compared with RuHACL: 5 mM formaldehyde as sole carbon source
From the text: We used glycolic acid (glycolate) productivity per cell density (uM glycolate/OD600) as indicator of HACS activity. Two different enzymatic routes for glycolate synthesis are explored. The first pathway (pathway 1) is similar to the pathway used for initial screening in Example 2 with addition of an extra gene, aldehyde dehydrogenase aldA from Escherichia coli (EcAldA) overexpressed to drive flux from glycolaldehyde to glycolate (FIG. 21A). In addition, HACS and LmACR-AldA are controlled under independent inducible promoters to investigate the impact of varying relative gene expressions (FIG. 21B). The second pathway (pathway 2) involves independent fluxes of formaldehyde and formyl-CoA allowing assessment of the enzyme activity with response to changing formaldehyde concentration only, while maintaining constant formyl-CoA flux. Formyl-CoA is generated by formic acid (formate) catalyzed by the acyl-CoA transferase from Clostridium aminobutyricum (CaAbfT) (FIG. 22A).
For the in vivo prototyping, we engineered vectors to independently control expression of HACS variants and the LmACR-EcAldA (pathway 1, FIG. 21A) or CaAbfT (pathway 2, FIG. 22A), with HACS under control of the IPTG-inducible T7 promoter in pCDFDuet-1 and LmACR-EcAldA or CaAbfT under control of a cumate-inducible T5 promoter in pETDuet-1 (FIG. 21B). As a host for these vectors, we used an engineered strain of E. coli based on MG1655(DE3) with knockouts for formaldehyde (ΔfrmA) and formate (ΔfdhF ΔfdnG ΔfdoG) oxidation as well as for glycolate utilization (ΔglcD)), which we expected could compete or interfere with the analysis of our pathway. […]
Cells from the above pre-cultures were then centrifuged (4000 rpm, 22° C.), washed with the above minimal media without any carbon source, and resuspended with 1 mL of above minimal media containing indicated amounts of carbon source. […] The cells were harvested after 3 hours for LmACR-EcAldA co-expression and 1 hour for CaAbfT co-expression by centrifugation and the supernatant analyzed by HPLC or GC-MS as described in EXAMPLE 2. […]

Row | Molecule | Kcat, app [1] [s⁻¹] | Km [1] [µM] | glycolate productivity (glycolyl-CoA synthase activity) compared with RuHACL [2] | glycolate productivity relative to RuHACL ([2]; 5 mM formaldehyde sole carbon source, optimal inducer concentrations, 3 hours) [fold]
1 | JGI15: HACS variant; GenBank HAK63664.1 (protein) MAKSEGKVNGATLMARALQQQGVQYMFGIVGFPVIPIAIAAQREGITYIGMRNEQSASYAAQAASYLTGRPQACLVVSGPGVVHALAGLANAQVNCWPMLLIGGASAIEQNGMGAFQEERQVLLASPLCKYAHQVERPERIPYYVEQAVRSALFGRPGAAYLDMPDDVILGEVEEAAVRPAATVGEPPRSLAPQENIEAALDALQSAKRPLVIVGKGMAWSRAENEVRQFIERTRLPFLATPMGKGVMPDDHPLSVGGARSHALQEADLVFLLGARFNWILHFGLPPRYSKDVRVIQLDLSAEEIGNNRQAEVALVGDGKAIVGQLNQALSSRQWFYPAETPWREAIAAKIAGNQAAVAPMIADNTSPMNYYRVYRDIAARLPRNAIIVGEGANTMDIGRTQMPNFEPRSRLDAGSYGTMGIGLGFAVAAAAVHPGRPVIAVQGDSAFGFSGMEFETAARYGMPIKVIILNNGGIGMGSPAPRDGQPGMPHALSHDARYERIAEAFGGAGFYVTDSAELGPALDAAMAFKGPAIVNIKIAATADRKPQQFNWHG | 22.50 ± 1.93 | 290 ± 20 | exceeding the starting reference enzyme, RuHACL | 2.5
2 | JGI20: HACS variant; GenBank PWB41796.1 (protein) MGQITGAQIVARALKQQGVEYMFGIVGIPVIPIAMFAQREGIKFYGFRNEQSASYAAAAVGYLTGRPGVCLGVSGPGMIHGVAGMANAWSNCWPMILIGGANDSYQNGQGAFQEAPQIEAARPFAKYCARPDSLARLPFYVEQAVRTSIYGRPGAVYLDLPGDIITGAMEEEDVHFPPRCPDAPRMMAPQESIDAAMAALKSAERPLVIVGKGAAYSRAENEVREFLETTQLPYLASPMGKGVMPDDHPLSIAPARSAALLGADVILLMGARLNWMMHFGHPPRFDPKVRVIQMDISAEEIGTNVPTEVALVGDAKAITTQLNASLKQQPWQYPSETTWWTGLRKKIDENGATVAEMMADESVPMSYYRVYREIRDLIPNDAIIQNEGASTMDIGRTLMPNFLPRHRLDAGSFGTMGVGLGQAIAAAAVHPDKHVFCIEGDSAFGFSGMEVETAARYGMKNITFIIINNNGIGGGPDTLDPTRVPPSAYTPNAHYEKMAEIYGGKGYFVTEPSQLRPALEEAIKADKPAIVNIMISATSQRKPQQFAWLTR | 39.44 ± 3.95 | 930 ± 150 | exceeding the starting reference enzyme, RuHACL | 
